Reference: patent US20180162952A1
“And” between values parts separate entries of the source, which are not always exact repeats. Identical values can stand only once.

B1: SC6.23 (antibody, V domains shown)
VH: QVTLKESGPGILKPSQTLSLTCSFSGFSLSTSNMGVGWIRQPSGKGLEWLAHIWWDDDKYYNPSLKSQLTISKDTSRNQVFLKITSVDTEDTATYYCVRSNYGYAWFAYWGQGTLVTVSA
VL: DIKMTQSPSSMYASLGERVTITCKASQDIYPYLNWFQQKPGKSPKTLIYRTNRLLDGVPSRFSGSGSGQDYSLTISSLDYEDMGIYYCLQYDEFPLTFGAGTKLELK
B2: SC6.24 (antibody, V domains shown)
VH: QVQLQQSGPEVVRPGVSVKISCKGSGYTFTDYAVHWVKLSHAKSLEWIGVISTYNDYTYNNQDFKGKATMTVDKSSSTAYMELARLTSEDSAIYYCARGNSYFYALDYWGQGTSVTVSS
VL: DIVLTQSPASLAVSLGQRATISCRASESVDSYGKSFMHWYQQRPGQPPKLLIYRASNLESGIPARFSGSGSRTDFTLTINPVEADDVATYYCQQSNEDPWTFGGGTKLEIK
B3: SC6.2.35 (antibody, V domains shown)
VH: QVQMQQSGAELMKPGASVKLSCKATGYTFTGYWIEWVKQRPGHGLEWIGEILPGSGRSNSNEKFKGKATFTADTSSNTAYMQLSSLTTEDSAIYYCARGKLSWGQGTLVTVSA
VL: DIVLTQSPASLAVSLGQRATISCRASESVDSFGNSFMHWYQQKPGQPPKLLIYAASNLGSGVPARFSGSGSGTDFSLNIHPVEEDDSAMYFCQQSKEVPRTFGGGSRLEIKR
B4: SC6.58 (antibody, V domains shown)
VH: EVKLLESGGGLVQPGGSLKLSCAASGFDFSRYWMSWVRQAPGKGLEWIGDLNPDSSAINYTPSLKDKFIISRDNAKNTLYLQMSKVRSEDTALYYCTLITTLVPYTMDFWGQGTSVTVSS
VL: ETTVTQSPASLSMAIGEKVTIRCITNTDIDDDMNWYQQKPGEPPKLLISEGNGLRPGVPSRFSSSGYGTDFVFTIENMLSEDVADYYCLQSDNLPLTFGSGTKLEIK
B5: SC6.21 (antibody, V domains shown)
VH: SDVQLQESGPGLVKPSQTLSLTCSVPDYSITSDYHWHWIRQFPGNKLEWMGYISSRGSTNYNPSLKNRISITHDTSENQFFLKLTSVTTEDSATYYCAGLSQLALDYWGQGTTLTVSS
VL: DIVMSQSPSSLAVSVGEKVTLSCKSSQSLLYSSTQNNYLAWYQQTPGQSPKLLIYWASTRESGVPDRFTGSGSGTDFTLTISSVKAEDLAVYYCQQYYSYPWTFGGGTKLEIK
B6: SC6.41 (antibody, V domains shown)
VH: EVQLQQSGAESVRSGASVKLSCTASGLNIKDYYMHWVNLRPEQGLEWIGWIDPENGDTEYAPEFQGKATMTADTSSNTAYLQLSSLTSEDTAVYYCNACNYGSAYGYWGQGTTLTVSS
VL: DIVLTQATPSVPVTPGESVSISCRSSKSLLHTKGDTYLYWFLQRPGQSPQLLIYRMSNLASGVPDRFSGSGSGTVFTLRISRVEAEDVGVYYCMQHLEYPFTFGSGTKLEIKR

How the values were obtained:
[1] = target: human PTK7 on non-engineered cells (human), Q13308; assay: cell-based or functional assay
[2] = target: human PTK7 on non-engineered cells (human) (UniProt Q13308); assay: cell-based or functional assay

Row | Binder | EC50, saporin (Fab-ZAP) cell killing, G401 Cells [1] | EC50, saporin (Fab-ZAP) cell killing, HEK293T Cells [1] | EC50, saporin (Fab-ZAP) cell killing, G401 Cells [2] | EC50, saporin (Fab-ZAP) cell killing, HEK293T Cells [2] | elimination of BR13 and BR64 breast NTX tumor cells, antibody at 0.2 nM with Fab-ZAP [2]
1 | B1 | 2.6 pM | 3 pM | – | – | –
2 | B2 | 6.7 pM | 11 pM | – | – | –
3 | B3 | – | – | 1.1 pM | 0.45 pM | 70% and 80%
4 | B4 | 35.1 pM | 86.8 pM | – | – | –
5 | B5 | 200 pM | – | – | – | –
6 | B6 | 2.6 pM | 5.7 pM | – | – | –
